Assay results published in article PMC3910112.

Biological target: fluorescein-labelled mouse EAG1 eag domain (FL-eag) (mouse) (UniProt Q60603)
Experiment: fluorescence polarisation

Kd: 13.2 µM
Substance: mouse EAG1 (mEAG1) CNBHD (residues 552-724) (from UniProt Q60603 552-724) (domain or fragment)
